Measured values: publication PMC7176432, “Single-molecule functional anatomy of endogenous HER2-HER3 heterodimers” (eLife, 2020)

Test system: T1, Nc1ncnc2c1ncn2[C@@H]1O[C@H](COP(=O)(O)OP(=O)(O)OP(=O)(O)O)[C@@H](O)[C@H]1O
T1 construct: entire endogenous HER2, ligand-free HER2 complexes immunoprecipitated from SKBR3 cells
Assay: Michaelis-Menten titration of ATP, single-molecule pTyr1196 immunolabeling (KM)
Format: biochemical, Homo sapiens
Conditions: Mg2+

**Q.** How did the Km turn out when HER2 (Homo sapiens) was run?
**A.** The Km was 16.46 µM.
